Results from US20230406927A1 (REGENTS OF THE UNIVERSITY OF MINNESOTA, published 2023).

B1: anti-CD3-1DD fusion protein (VHH)
chain: MGHHHHHHEVQLLEEVQLVESGGGLVQPGGSLRLSCAASGFTFDDYGMSWVRQAPGKWLEWVSDISWNGGSTYYADSVKGRFTISRDNAENTLYLQMNSLKPDDTAVYYCAKMGEGGWGANDYWGQGTQVTVSSGGGASGGGGSGGGGSGISLIAALAVDRVIGMENAMPWNLPADLAWFKRNTLNKPVIMGRHTWESIGRPLPGRKNIILSSQPGTDDRVTWVKSVDEAIAAAGDVPEIMVIGGGRVYEQFLPKAQKLYLTHIDAEVEGDTHFPDYEPDDWESVFSEFHDADAQNSHSYSFEILERRGGISLIAALAVDRVIGMENAMPWNLPADLAWFKRNTLNKPVIMGRHTWESIGRPLPGRKNIILSSQPGTDDRVTWVKSVDEAIAAAGDVPEIMVIGGGRVYEQFLPKAQKLYLTHIDAEVEGDTHFPDYEPDDWESVFSEFHDADAQNSHSYSFEILERRGGGLKDYKDDDDK
notes: Anti-CD3 nanobody fused to an E. coli DHFR dimer (1DD); also called αCD3-1DD; anti-CD3-DHFR2 fusion protein
B2: hHINT1-anti-CD3-1DD fusion protein (VHH)
chain: MGHHHHHHMADEIAKAQVARPGGDTIFGKIIRKEIPAKIIFEDDRSLAFHDISPQAPTHFLVIPKKHISQISVAEDDDESLLGHLMIVGKKSAADLGLNKGYRMEVNEGSDGGQSVYHVHLHVLGGRQMHWPPGGGSGGGPLGVRGSGGELEVQLLEEVQLVESGGGLVQPGGSLRLSCAASGFTFDDYGMSWVRQAPGKWLEWVSDISWNGGSTYYADSVKGRFTISRDNAENTLYLQMNSLKPDDTAVYYCAKMGEGGWGANDYWGQGTQVTVSSGGGASGGGGSGGGGSGISLIAALAVDRVIGMENAMPWNLPADLAWFKRNTLNKPVIMGRHTWESIGRPLPGRKNIILSSQPGTDDRVTWVKSVDEAIAAAGDVPEIMVIGGGRVYEQFLPKAQKLYLTHIDAEVEGDTHFPDYEPDDWESVFSEFHDADAQNSHSYSFEILERRGGISLIAALAVDRVIGMENAMPWNLPADLAWFKRNTLNKPVIMGRHTWESIGRPLPGRKNIILSSQPGTDDRVTWVKSVDEAIAAAGDVPEIMVIGGGRVYEQFLPKAQKLYLTHIDAEVEGDTHFPDYEPDDWESVFSEFHDADAQNSHSYSFEILERRGGGLKDYKDDDDK
notes: Masked form; also called hHINT1-αCD3-1DD; HINT1-αCD3-1DD

Columns and labels:
[1] = target: T1, CD3ε receptor on the surface of T cells (human, UniProt P07766 23-207); experiment: dose-dependent titration by flow cytometry on T cells isolated from healthy donor blood; apparent KD
T1 construct: whole, on cells; The target stood on primary T cells, where CD3ε is part of the TCR/CD3 complex; also called human CD3ε; CD3 epsilon chain
Method: (§1) The apparent affinity of the fusion proteins was determined using flow cytometry with T cells isolated from healthy donor blood.

[2] = target: T1, CD3ε receptor on the surface of T cells; experiment: ratio of apparent KD values from the flow cytometry titration on T cells; reference is unmasked anti-CD3-1DD
Method: as §1

T1 sequence (P07766 23-207): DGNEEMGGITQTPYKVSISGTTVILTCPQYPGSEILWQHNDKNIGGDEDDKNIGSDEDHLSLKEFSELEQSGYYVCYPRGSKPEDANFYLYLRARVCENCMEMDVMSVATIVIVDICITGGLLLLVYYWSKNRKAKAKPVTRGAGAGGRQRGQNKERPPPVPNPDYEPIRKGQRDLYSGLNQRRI

Binder	Kd [1]	fold reduction of binding affinity against anti-CD3-1DD [2]
B1	100 nM	
B2	> 4000 nM	~40 fold
